Results: patent US20060068468A1 (ACCELERON PHARMA, published 2006)

T1: Activin A (UniProt P08476 311-426)
T1 construct: also called ActA
T1 sequence (looked up): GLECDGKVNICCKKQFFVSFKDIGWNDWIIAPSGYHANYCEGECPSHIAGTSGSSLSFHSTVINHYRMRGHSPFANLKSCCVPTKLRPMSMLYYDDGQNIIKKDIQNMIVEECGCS

T2: GDF-11 (UniProt O95390 299-407)
T2 construct: also called Growth and Differentiation Factor-11; BMP11
T2 sequence (looked up): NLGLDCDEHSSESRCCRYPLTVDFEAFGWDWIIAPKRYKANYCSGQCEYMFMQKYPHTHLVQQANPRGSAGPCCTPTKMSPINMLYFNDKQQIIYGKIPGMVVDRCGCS


What was measured:
Activin A = biological target: T1, Activin A; assay: BiaCore, ligand immobilized on CM5 chip
Method: (§1) GDF-11 or Activin A (“ActA”) were immobilized on a BiaCore CM5 chip using standard amine coupling procedure. The ActRIIB-Fc mutant or wild-type protein was loaded onto the system, and binding was measured.

GDF-11 [1] = biological target: T2, GDF-11; assay: BiaCore, ligand immobilized on CM5 chip
Method: as §1

GDF-11 [2] = biological target: T2, GDF-11; assay: BiaCore (SPR); ligand amine-coupled to CM5 chip, ActRIIB-Fc injected
Method: as §1

| Binder | binding result (Activin A) | binding result (GDF-11 [1]) | Kd (GDF-11 [2]) [nM] | binding result (GDF-11 [2]) |
| --- | --- | --- | --- | --- |
| ActRIIB-Fc D80A (Fc fusion, Mutation in the background ActRIIB-Fc) SGRGEAETRECIYYNANWELERTNQSGLERCEGEQDKRLHCYASWANSSGTIELVKKGCWLADFNCYDRQECVATEENPQVYFCCCEGNFCNERFTHLPEAGGGTHTCPPCPAPELLGGPSVFLFPPKPKDTLMISRTPEVTCVVVDVSHEDPEVKFNWYVDGVEVHNAKTKPREEQYNSTYRVVSVLTVLHQDWLNGKEYKCKVSNKALPVPIEKTISKAKGQPREPQVYTLPPSREEMTKNQVSLTCLVKGFYPSDIAVEWESNGQPENNYKTTPPVLDSDGSFFLYSKLTVDKSRWQQGNVFSCSVMHEALHNHYTQKSLSLSPGK | no binding | no binding |  |  |
| ActRIIB-Fc R56A (Fc fusion, Mutation in the background ActRIIB-Fc) SGRGEAETRECIYYNANWELERTNQSGLERCEGEQDKALHCYASWANSSGTIELVKKGCWLDDFNCYDRQECVATEENPQVYFCCCEGNFCNERFTHLPEAGGGTHTCPPCPAPELLGGPSVFLFPPKPKDTLMISRTPEVTCVVVDVSHEDPEVKFNWYVDGVEVHNAKTKPREEQYNSTYRVVSVLTVLHQDWLNGKEYKCKVSNKALPVPIEKTISKAKGQPREPQVYTLPPSREEMTKNQVSLTCLVKGFYPSDIAVEWESNGQPENNYKTTPPVLDSDGSFFLYSKLTVDKSRWQQGNVFSCSVMHEALHNHYTQKSLSLSPGK | no binding | no binding |  |  |
| ActRIIB-Fc D80F (Fc fusion, Mutation in the background ActRIIB-Fc) SGRGEAETRECIYYNANWELERTNQSGLERCEGEQDKRLHCYASWANSSGTIELVKKGCWLFDFNCYDRQECVATEENPQVYFCCCEGNFCNERFTHLPEAGGGTHTCPPCPAPELLGGPSVFLFPPKPKDTLMISRTPEVTCVVVDVSHEDPEVKFNWYVDGVEVHNAKTKPREEQYNSTYRVVSVLTVLHQDWLNGKEYKCKVSNKALPVPIEKTISKAKGQPREPQVYTLPPSREEMTKNQVSLTCLVKGFYPSDIAVEWESNGQPENNYKTTPPVLDSDGSFFLYSKLTVDKSRWQQGNVFSCSVMHEALHNHYTQKSLSLSPGK | no binding | no binding |  |  |
| ActRIIB-Fc D80I (Fc fusion, Mutation in the background ActRIIB-Fc) SGRGEAETRECIYYNANWELERTNQSGLERCEGEQDKRLHCYASWANSSGTIELVKKGCWLIDFNCYDRQECVATEENPQVYFCCCEGNFCNERFTHLPEAGGGTHTCPPCPAPELLGGPSVFLFPPKPKDTLMISRTPEVTCVVVDVSHEDPEVKFNWYVDGVEVHNAKTKPREEQYNSTYRVVSVLTVLHQDWLNGKEYKCKVSNKALPVPIEKTISKAKGQPREPQVYTLPPSREEMTKNQVSLTCLVKGFYPSDIAVEWESNGQPENNYKTTPPVLDSDGSFFLYSKLTVDKSRWQQGNVFSCSVMHEALHNHYTQKSLSLSPGK | no binding |  |  | binds |
| ActRIIB-Fc E37A (Fc fusion, Mutation in the background ActRIIB-Fc) SGRGEAETRECIYYNANWALERTNQSGLERCEGEQDKRLHCYASWANSSGTIELVKKGCWLDDFNCYDRQECVATEENPQVYFCCCEGNFCNERFTHLPEAGGGTHTCPPCPAPELLGGPSVFLFPPKPKDTLMISRTPEVTCVVVDVSHEDPEVKFNWYVDGVEVHNAKTKPREEQYNSTYRVVSVLTVLHQDWLNGKEYKCKVSNKALPVPIEKTISKAKGQPREPQVYTLPPSREEMTKNQVSLTCLVKGFYPSDIAVEWESNGQPENNYKTTPPVLDSDGSFFLYSKLTVDKSRWQQGNVFSCSVMHEALHNHYTQKSLSLSPGK | no binding | no binding |  |  |
| ActRIIB-Fc F82A (Fc fusion, Mutation in the background ActRIIB-Fc) SGRGEAETRECIYYNANWELERTNQSGLERCEGEQDKRLHCYASWANSSGTIELVKKGCWLDDANCYDRQECVATEENPQVYFCCCEGNFCNERFTHLPEAGGGTHTCPPCPAPELLGGPSVFLFPPKPKDTLMISRTPEVTCVVVDVSHEDPEVKFNWYVDGVEVHNAKTKPREEQYNSTYRVVSVLTVLHQDWLNGKEYKCKVSNKALPVPIEKTISKAKGQPREPQVYTLPPSREEMTKNQVSLTCLVKGFYPSDIAVEWESNGQPENNYKTTPPVLDSDGSFFLYSKLTVDKSRWQQGNVFSCSVMHEALHNHYTQKSLSLSPGK |  |  |  | binds |
| ActRIIB-Fc D80M (Fc fusion, Mutation in the background ActRIIB-Fc) SGRGEAETRECIYYNANWELERTNQSGLERCEGEQDKRLHCYASWANSSGTIELVKKGCWLMDFNCYDRQECVATEENPQVYFCCCEGNFCNERFTHLPEAGGGTHTCPPCPAPELLGGPSVFLFPPKPKDTLMISRTPEVTCVVVDVSHEDPEVKFNWYVDGVEVHNAKTKPREEQYNSTYRVVSVLTVLHQDWLNGKEYKCKVSNKALPVPIEKTISKAKGQPREPQVYTLPPSREEMTKNQVSLTCLVKGFYPSDIAVEWESNGQPENNYKTTPPVLDSDGSFFLYSKLTVDKSRWQQGNVFSCSVMHEALHNHYTQKSLSLSPGK | no binding | no binding |  |  |
| ActRIIB-Fc D80G (Fc fusion, Mutation in the background ActRIIB-Fc) SGRGEAETRECIYYNANWELERTNQSGLERCEGEQDKRLHCYASWANSSGTIELVKKGCWLGDFNCYDRQECVATEENPQVYFCCCEGNFCNERFTHLPEAGGGTHTCPPCPAPELLGGPSVFLFPPKPKDTLMISRTPEVTCVVVDVSHEDPEVKFNWYVDGVEVHNAKTKPREEQYNSTYRVVSVLTVLHQDWLNGKEYKCKVSNKALPVPIEKTISKAKGQPREPQVYTLPPSREEMTKNQVSLTCLVKGFYPSDIAVEWESNGQPENNYKTTPPVLDSDGSFFLYSKLTVDKSRWQQGNVFSCSVMHEALHNHYTQKSLSLSPGK | no binding | no binding |  |  |
| ActRIIB-Fc W78A (Fc fusion, Mutation in the background ActRIIB-Fc) SGRGEAETRECIYYNANWELERTNQSGLERCEGEQDKRLHCYASWANSSGTIELVKKGCALDDFNCYDRQECVATEENPQVYFCCCEGNFCNERFTHLPEAGGGTHTCPPCPAPELLGGPSVFLFPPKPKDTLMISRTPEVTCVVVDVSHEDPEVKFNWYVDGVEVHNAKTKPREEQYNSTYRVVSVLTVLHQDWLNGKEYKCKVSNKALPVPIEKTISKAKGQPREPQVYTLPPSREEMTKNQVSLTCLVKGFYPSDIAVEWESNGQPENNYKTTPPVLDSDGSFFLYSKLTVDKSRWQQGNVFSCSVMHEALHNHYTQKSLSLSPGK | no binding | no binding |  |  |

Now from value to binder:

| binding result (Activin A) | binding result (GDF-11 [1]) | Kd (GDF-11 [2]) [nM] | binding result (GDF-11 [2]) | Binder |
| --- | --- | --- | --- | --- |
| no binding | no binding |  |  | ActRIIB-Fc D80K (Fc fusion, Mutation in the background ActRIIB-Fc) SGRGEAETRECIYYNANWELERTNQSGLERCEGEQDKRLHCYASWANSSGTIELVKKGCWLKDFNCYDRQECVATEENPQVYFCCCEGNFCNERFTHLPEAGGGTHTCPPCPAPELLGGPSVFLFPPKPKDTLMISRTPEVTCVVVDVSHEDPEVKFNWYVDGVEVHNAKTKPREEQYNSTYRVVSVLTVLHQDWLNGKEYKCKVSNKALPVPIEKTISKAKGQPREPQVYTLPPSREEMTKNQVSLTCLVKGFYPSDIAVEWESNGQPENNYKTTPPVLDSDGSFFLYSKLTVDKSRWQQGNVFSCSVMHEALHNHYTQKSLSLSPGK |
|  |  | 86 |  | ActRIIB-Fc WT (64R) (Fc fusion, also called A64R) SGRGEAETRECIYYNANWELERTNQSGLERCEGEQDKRLHCYASWRNSSGTIELVKKGCWLDDFNCYDRQECVATEENPQVYFCCCEGNFCNERFTHLPEAGGGTHTCPPCPAPELLGGPSVFLFPPKPKDTLMISRTPEVTCVVVDVSHEDPEVKFNWYVDGVEVHNAKTKPREEQYNSTYRVVSVLTVLHQDWLNGKEYKCKVSNKALPVPIEKTISKAKGQPREPQVYTLPPSREEMTKNQVSLTCLVKGFYPSDIAVEWESNGQPENNYKTTPPVLDSDGSFFLYSKLTVDKSRWQQGNVFSCSVMHEALHNHYTQKSLSLSPGK |
| no binding | no binding |  |  | ActRIIB-Fc D80R (Fc fusion, Mutation in the background ActRIIB-Fc) SGRGEAETRECIYYNANWELERTNQSGLERCEGEQDKRLHCYASWANSSGTIELVKKGCWLRDFNCYDRQECVATEENPQVYFCCCEGNFCNERFTHLPEAGGGTHTCPPCPAPELLGGPSVFLFPPKPKDTLMISRTPEVTCVVVDVSHEDPEVKFNWYVDGVEVHNAKTKPREEQYNSTYRVVSVLTVLHQDWLNGKEYKCKVSNKALPVPIEKTISKAKGQPREPQVYTLPPSREEMTKNQVSLTCLVKGFYPSDIAVEWESNGQPENNYKTTPPVLDSDGSFFLYSKLTVDKSRWQQGNVFSCSVMHEALHNHYTQKSLSLSPGK |
|  | no binding |  |  | ActRIIB-Fc K55A (Fc fusion, Mutation in the background ActRIIB-Fc) SGRGEAETRECIYYNANWELERTNQSGLERCEGEQDARLHCYASWANSSGTIELVKKGCWLDDFNCYDRQECVATEENPQVYFCCCEGNFCNERFTHLPEAGGGTHTCPPCPAPELLGGPSVFLFPPKPKDTLMISRTPEVTCVVVDVSHEDPEVKFNWYVDGVEVHNAKTKPREEQYNSTYRVVSVLTVLHQDWLNGKEYKCKVSNKALPVPIEKTISKAKGQPREPQVYTLPPSREEMTKNQVSLTCLVKGFYPSDIAVEWESNGQPENNYKTTPPVLDSDGSFFLYSKLTVDKSRWQQGNVFSCSVMHEALHNHYTQKSLSLSPGK |
| no binding | no binding |  |  | ActRIIB-Fc D80N (Fc fusion, Mutation in the background ActRIIB-Fc) SGRGEAETRECIYYNANWELERTNQSGLERCEGEQDKRLHCYASWANSSGTIELVKKGCWLNDFNCYDRQECVATEENPQVYFCCCEGNFCNERFTHLPEAGGGTHTCPPCPAPELLGGPSVFLFPPKPKDTLMISRTPEVTCVVVDVSHEDPEVKFNWYVDGVEVHNAKTKPREEQYNSTYRVVSVLTVLHQDWLNGKEYKCKVSNKALPVPIEKTISKAKGQPREPQVYTLPPSREEMTKNQVSLTCLVKGFYPSDIAVEWESNGQPENNYKTTPPVLDSDGSFFLYSKLTVDKSRWQQGNVFSCSVMHEALHNHYTQKSLSLSPGK |
